From doi:10.1101/2025.09.11.675549, “CCDC103-mediated assembly of the R2C complex links RUVBL1-RUVBL2 to Primary Ciliary Dyskinesia” (bioRxiv, 2025) come the findings set out here.

Test [1] deals with T1, RUVBL1-RUVBL2-strep complex (6XHIS-RUVBL1-RUVBL2-strep) (human, UniProt Q9Y265 1-456; Q9Y230 1-463).
T1 construct: RUVBL1 (RuvB like 1), human, UniProt Q9Y265; RUVBL2 (RuvB like 2), human, UniProt Q9Y230; also called RUVBL1-RUVBL2 complex; hetero-hexameric ring; source: E. coli Rosetta (DE3) pLysS (pRSETA and pCDF Duet 1), purified by a previously defined protocol; not shown: Strep, C-terminal, kept; copies: 3 + 3
Nature of the test: pull-down; 10 uM GST-CCDC103 RBD and 10 uM RUVBL1-RUVBL2 on GST beads; 50mM HEPES pH 7.5, 140mM NaCl, 0.001% Tween 20; 45 min at 4 C; three washes; SDS-PAGE. Conditions: both partners purified.

The target in test [2] is T1, RUVBL1-RUVBL2-strep complex …. Nature of the test: pull-down; RUVBL1-RUVBL2-strep held on Streptavidin Mag Sepharose beads, full-length CCDC103 as prey; 50mM HEPES pH 7.5, 140mM NaCl, 0.001% Tween 20; eluted with 2.5mM desthiobiotin; SDS-PAGE. Conditions: both partners purified.

T1 sequence (Q9Y265 whole entry, chain 1 of 2): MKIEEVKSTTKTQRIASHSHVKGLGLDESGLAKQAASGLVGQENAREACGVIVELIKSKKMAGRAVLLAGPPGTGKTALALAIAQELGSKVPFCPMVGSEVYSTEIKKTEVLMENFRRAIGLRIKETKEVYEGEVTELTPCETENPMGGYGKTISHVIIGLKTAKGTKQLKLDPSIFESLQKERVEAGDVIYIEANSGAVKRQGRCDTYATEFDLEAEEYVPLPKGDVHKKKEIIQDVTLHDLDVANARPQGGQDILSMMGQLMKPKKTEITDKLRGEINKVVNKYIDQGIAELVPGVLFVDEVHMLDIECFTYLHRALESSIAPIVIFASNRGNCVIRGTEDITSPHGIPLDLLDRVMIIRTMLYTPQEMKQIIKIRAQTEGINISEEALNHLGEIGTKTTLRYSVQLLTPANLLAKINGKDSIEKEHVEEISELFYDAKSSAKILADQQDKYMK
T1 sequence (Q9Y230 whole entry, chain 2 of 2): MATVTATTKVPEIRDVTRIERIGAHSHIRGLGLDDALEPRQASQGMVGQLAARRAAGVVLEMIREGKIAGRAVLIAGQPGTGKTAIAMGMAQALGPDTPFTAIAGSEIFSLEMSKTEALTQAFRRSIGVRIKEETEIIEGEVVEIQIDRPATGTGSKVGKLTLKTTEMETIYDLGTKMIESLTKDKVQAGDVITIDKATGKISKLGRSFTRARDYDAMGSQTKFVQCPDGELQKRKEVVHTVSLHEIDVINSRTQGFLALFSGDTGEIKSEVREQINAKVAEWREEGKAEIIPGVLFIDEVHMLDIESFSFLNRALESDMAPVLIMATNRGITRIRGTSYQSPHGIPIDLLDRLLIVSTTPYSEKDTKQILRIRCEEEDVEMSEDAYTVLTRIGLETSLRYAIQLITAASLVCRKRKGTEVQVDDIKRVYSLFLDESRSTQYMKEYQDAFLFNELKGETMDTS

B1: GST-tagged RBD domain of CCDC103 (domain or fragment, human, UniProt Q8IW40 100-242, looked up)
chain: ETSADFYRDWRRHLPSGPERYQALLQLGGPRLGCLFQTDVGFGLLGELLVALADHVGPADRAAVLGILCSLASTGRFTLNLSLLSRAERESCKGLFQKLQAMGNPRSVKEGLSWEEQGLEEQSGGLQEEERLLQELLELYQVD
notes: CCDC103, human, UniProt Q8IW40, RBD without the first 99 residues (lacks N-terminal 1-99); also called GST-CCDC103 RBD; source: E. coli Rosetta (DE3) pLysS (pGEX6-P1), purified (glutathione Sepharose 4B); not shown: GST, N-terminal, kept
Consider B1, for which, in test [1], the binding result was “binds”.

B2: full-length CCDC103 (natural protein, human, UniProt Q8IW40 1-242, looked up)
chain: MERNDIINFKALEKELQAALTADEKYKRENAAKLRAVEQRVASYEEFRGIVLASHLKPLERKDKMGGKRTVPWNCHTIQGRTFQDVATEISPEKAPLQPETSADFYRDWRRHLPSGPERYQALLQLGGPRLGCLFQTDVGFGLLGELLVALADHVGPADRAAVLGILCSLASTGRFTLNLSLLSRAERESCKGLFQKLQAMGNPRSVKEGLSWEEQGLEEQSGGLQEEERLLQELLELYQVD
notes: CCDC103 (DNAAF19), human, UniProt Q8IW40, full length; or Sf9, Flag-tagged) stood in the strep pull-down, so the tag is left open; also called CCDC103FL; DNAAF19
As for B2, the binding result in test [2] is “binds”.
